Legend:
[1] = system: control CHO cells (US28 negative); assay: FACS binding to US28 negative control CHO cells; set-up: species or system Chinese hamster
Method: Flowcytometry was used to analyze cell surface binding by the US28 antibodies. Upon cell harvest, adherent non-infected and US28 overexpressing or HCMV infected cells were washed three times with cell staining buffer (phosphate-buffered saline (PBS (Amresco, Cleveland, 44139, USA) added 0.5% BSA and 0.05% Sodium Azide (NaN3)). The cells were trypisinized and then resuspended in DMEM with 10% FBS to inhibit the action of trypsin. The cells were then pelleted at 400×g for 10 minutes and washed three times in cell staining buffer. Cell viability and cell concentration were measured by tryphan blue viability assay and a cell counter (Countess, Invitrogen, Carlsbad, CA 92008, USA). The cell suspension was adjusted to 1×10^6 cells/mL with ice-cold cell staining buffer. The cells were blocked in 1 ml 10% FBS or 1% BSA in PBS per 1×10^6 cells, vortexed briefly, and incubated for 10-30 minutes to eliminate non-specific staining. The cells were then stained with the respective antibodies and appropriate negative controls.
In both cases (ECD1 and ECD3), the antibodies were added to the cells, vortexed and incubated on ice for 15 to 30 minutes up to overnight and washed twice with cell staining buffer to remove any unbound antibodies. In addition, the CMV Immediate Early Antigen (IE) Alexa488 Ab, MAB810X, 1:50 was included to verify HCMV infected cells in one of the experiments. Because it binds to an intracellular, HCMV encoded protein, it was added after permeabilizing the cells in 70% ethanol for 30 min on ice.
1:500-1:5000 in cell staining buffer of the appropriate fluorescent-conjugated appropriate secondary antibodies were added and incubated on ice for 15-20 min in the dark. The cells were washed three times to remove any unbound antibodies. The cells were then fixed with 0.5% paraformaldehyde (PFA) for 30 min on ice and resuspended in 200-500 μL cell staining buffer for final flow cytometric analysis using an Accuri C6 flow cytometry system (BD Biosciences, San Jose, CA 95131, USA). Data analyses were performed using FlowJo software v8.8 (Treestar Inc. Ashland, OR 97520, USA).
Background levels were determined using the respective secondary antibodies (anti-mFc-FITC for the subclones, or anti-myc-PE for the VUN100 molecules) with CHO cells and CHO-US28 cells. Given that US28 is expressed on the cell surface, the cells were non-permeabilised for these experiments.

[2] = system: human cancer tissues and adjacent normal tissues; assay: Immunohistochemistry (IHC) on human cancer tissue micro-arrays
Method: Cytomegalovirus (CMV) control slides containing CMV positive lung tissue and CMV negative myometrium (product number #3240A) were obtained from Newcomer Supply Inc., Middleton, WI 53562-2579, USA. Tissue micro-arrays (TMAs) were obtained from US Biomax Inc., Derwood, MD 20855, USA, and included tumor tissues #BR1008b, #BS17016c, #BCN721b and normal tissues #FDA662a and heart tissues #HEN241a.
The paraffin sections were sequentially immersed into a. 100% xylene three times (5 min each); b. 100% ethanol twice (2 min each); c. 95% ethanol twice (2 min each). The slides were rinsed twice in water for 5 min to remove ethanol. […], the slides were immersed in 3% H2O2 for 5 minutes and washed thereafter twice (2×) with distilled water. The slides were then immersed in the working citrate buffer (pH 6.0) and covered with a lid. The buffer was heated in the microwave until it had boiled, and then kept in the steamer for 15 min.
The sections were cooled at room temperature for 30 min and washed with PBS. 5% BSA blocking solution was then added to the HIER treated samples and they were incubated at 37° C. for 30 min. The primary antibody was diluted according to the best results from the dilution gradient tests and added to the samples for incubation overnight at 4° C. or 37° C. for 1 h. The slides were then washed three times in PBS on the shaker. The secondary antibodies were used in 1:200 dilution, added to the samples and incubated at 37° C. for 30 min. The slides were washed three times (5 min each) in PBS on the shaker. Strept-Avidin Biotin Complex (SABC) HRP- or AP-conjugated reagents were added, and the samples were incubated in dark at room temperature. The samples were thereafter washed in distilled water, counter stained by hematoxylin, and then dehydrated through gradient ethanol from 70% to 100%, and cleared by 3 times in xylene, 5 min each. Slides were mounted by ACRYMOUNT (StatLab, MicKinney, TX 75069, USA) and cover-slipped. Digitized pictures were taken by Olympus VS120 scanner and analyzed by using OlyVia 3.2 software (Olympus Corporation, 20101 Tokyo, Japan) by senior Pathologist.
We thereafter studied the binding of US28-13-5G6-1D3 rAb to human cancer tissues by using IHC and confirmatory ISH analyses. The results were evaluated by a Senior Pathologist. We found specific staining of the US28-13-5G6-1D3 rAb on several cancer types. Among these were glioblastomas (e.g. glioblastoma grade 4), colonic cancer, rectum cancer, breast cancer (e.g. locally advanced breast cancer and its metastasis), oesophagus cancer, gastric/stomach cancer, pancreas cancer, liver cancer such as hepatocellular carcinoma, lung cancer, malignant pheochromocytoma and cervical cancer, showing for the first time a potential universal role of US28 in pathology of cancer. The staining intensity of different cancer cells were classified as negative=0, weakly positive=1+, moderately positive=2+ or strongly positive=3+. […] In the majority of tumors with a positive US28-13-5G6-1D3 rAb staining, the staining was generally positive in large parts of the tumor cells. The tumor positivity was confirmed by positive finding of HCMV DNA in nucleus of the tumor cells by using ISH. […] The IgG control Ab staining was used as negative control and was negative in all of the studied cancerous and normal tissues.

B1: 13-5G6-1D3 rAb: recombinant antibody product of US28-13-5G6-1D3 produced in HEK293-F cells (antibody)
heavy: EVKLVESGGGLVQPGGSLRLACATSGFTFTDYYMSWVRQPPGKALEWLGFIRSKANGYTTEYSASVKGRFTISRDNSQSILYLQMNTLRSEDSATYYCARDERRTAWLAYWGQGTLVTVSAAKTTPPSVYPLAPGSAAQTNSMVTLGCLVKGYFPEPVTVTWNSGSLSSGVHTFPAVLQSDLYTLSSSVTVPSSTWPSETVTCNVAHPASSTKVDKKIVPRDCGCKPCICTVPEVSSVFIFPPKPKDVLTITLTPKVTCVVVDISKDDPEVQFSWFVDDVEVHTAQTQPREEQFNSTFRSVSELPIMHQDWLNGKEFKCRVNSAAFPAPIEKTISKTKGRPKAPQVYTIPPPKEQMAKDKVSLTCMITDFFPEDITVEWQWNGQPAENYKNTQPIMDTDGSYFIYSKLNVQKSNWEAGNTFTCSVLHEGLHNHHTEKSLSHSPGK
light: DVLMTQTPLSLPVSLGDQASISCRSSQSIVHSNGNTYLDWYLQKPGQSPKLLIYKVSNRFSGVPDRFSGSGSGTDFTLKISRVEAEDLGVYYCFQGSHVPTWTFGGGTKLEIKRADAAPTVSIFPPSSEQLTSGGASVVCFLNNFYPKDINVKWKIDGSERQNGVLNSWTDQDSKDSTYSMSSTLTLTKDEYERHNSYTCEATHKTSTSPIVKSFNRNEC
[1]; 1:10 dilution (w/v), blank and secondary Ab controls removed, FIG. 7
  control CHO cells bound: 0.77%

B2: US28-13-5G6-1D3: monoclonal antibody against ECD3 of HCMV US28; VH SEQ ID NO: 12, VL SEQ ID NO: 18; rAb is the recombinant product (antibody, V domains shown)
VH: EVKLVESGGGLVQPGGSLRLACATSGFTFTDYYMSWVRQPPGKALEWLGFIRSKANGYTTEYSASVKGRFTISRDNSQSILYLQMNTLRSEDSATYYCARDERRTAWLAYWGQGTLVTVSA
VL: DVLMTQTPLSLPVSLGDQASISCRSSQSIVHSNGNTYLDWYLQKPGQSPKLLIYKVSNRFSGVPDRFSGSGSGTDFTLKISRVEAEDLGVYYCFQGSHVPTWTFGGGTKLEIK
modifications: Mature form of VH sequence of 1D3, without the leader sequence; Mature form of VL sequence of 1D3, without the leader sequence
notes: monoclonal antibody against ECD3 of HCMV US28; rAb is the recombinant product
[2]; All TNBC (n=8) and HER2 positive (n=11) metastases
  staining of metastases: positive
[2]; Hepatocellular carcinomas
  samples positive for staining: 2/3
[2]; cervix cancer samples
  samples positive for staining: 2/3
[2]; epithelial cells adjacent to colon adenocarcinoma
  controls negative for staining: 3/3
[2]; lung cancer samples
  samples positive for staining: 2/3
[2]; pancreas cancer samples
  samples positive for staining: 1/3
[2]; rectum adenocarcinoma, 3 studied
  number of samples with positive staining: 3

B3: 13-5G6-1D3: mouse monoclonal IgG1 kappa antibody against US28 ECD3; VH SEQ ID NO: 12, VL SEQ ID NO: 18 (antibody, V domains shown)
VH: B2 VH
VL: B2 VL
modifications: Mature form of VH sequence of 1D3, without the leader sequence; Mature form of VL sequence of 1D3, without the leader sequence
[2]; human malignant pheochromocytoma tumor (HCMV positive control), FIG. 19 B
  IHC staining: positive staining
[2]; normal breast epithelial cells
  adjacent control breast tissues with no cytoplasmic staining: 10/10
[1]; FIG. 21A
  background binding, % of CHO negative control population: 0.88%

B4: 7B1F3: mouse IgG1 kappa antibody against US28 ECD1 Peptide-N; VH SEQ ID NO: 211, VL SEQ ID NO: 213 (antibody, V domains shown)
VH: EVQLQQSGAELAKPGASVKMSCKASGYTFTNYWMHWVKQRPGQGLEWIGYVNPRTGYTEYNQKFKDKATLTADKSSRTAYMQLSSLTSEDSAVYSCARILNGTGFAYWGQGTLVTVSA
VL: DIVLTQSPSSLTVSVGEKFTMSCKSSQSLLYSSNQKNYLAWYQQKPGQSPKLLIYWASTRESGVPDRFTGSGSGTDFTLAISSVKPEDLAIYYCQQYYSFPLTFGAGTKLEIK
modifications: Mature form of VH sequence of 7B1F3, without the leader sequence; Mature form of VL sequence of 7B1F3, without the leader sequence
[1]; Table 7B, (1:5), secondary antibody background removed
  Percentage of binding to CHO cells: 0.67%

Source: patent US20250296984A1, “THERAPEUTIC AND DIAGNOSTIC AGENTS AND USES THEREOF” (priority 2022, published 2025)
